# Laboratory results published in the supplement of paper PMC10567573.
# B1: ZNF263 (parent)
# chain: LLRHQRIHTGERPYKCPECGKSFS
# Variants of: B1
# Assay: protein stability index of a GFP-peptide fusion (GPS, HEK-293T) (PSI 1-6); higher = more stable
# Conditions: c terminus: a fixed tail appended
# 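Also: lentivirally expressed fusions sorted by FACS into six bins by GFP to DsRed ratio, PSI derived from sequencing read proportions per bin multiplied by bin number.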
row,Variant,protein stability index
1,LLRHQRIHTGERPYKCPEWGKSFS,1.66
2,LLRHQRIHTGERPYKCPEYGKSFS,2.45
3,LLRHQRIHTGERPYKCPECGKSMS,1.99
4,LLRHQRIHTGERPYKCPECGKSVS,2.53
5,LLRHQRIHTGERPYKCPECGKSQS,3.71
6,LLRHQRIHTGERPYKCPECGKSLS,2.14
7,LLRHQRIHTGERPYKCPECGKSDS,3.13
8,LLRHQRIHTGERPYKCPECGKSHS,3.64
9,LLRHQRIHTGERPYKCPECGKSPS,3.39
10,LLRHQRIHTGERPYKCPECGKSTS,2.59
11,LLRHQRIHTGERPYKCPECGKSAS,2.87
12,LLRHQRIHTGERPYKCPECGKSGS,2.75
13,LLRHQRIHTGERPYKCPECGKSSS,2.25
14,LLRHQRIHTGERPYKCPECGKSKS,2.83
15,LLRHQRIHTGERPYKCPECGKSWS,1.84
16,LLRHQRIHTGERPYKCPECGKSCS,3.29
17,LLRHQRIHTGERPYKCPECGKSYS,2.79
18,LLRHQRIHTGERPYKCPECGKSNS,2.68
19,LLRHQRIHTGERPYKCPECGKSIS,2.51
20,LLRHQRIHTGERPYKCPECGKSES,2.38
21,LLRHQRIHTGERPYKCPECGKSRS,1.93
22,LLRHQRIHTGERPYKCPECGKAFS,2.41
23,LLRHQRIHTGERPYKCPECGKCFS,2.37
24,LLRHQRIHTGERPYKCPECGKKFS,2.35

row,Variant,protein stability index
1,LLRHQRIHTGERPYKCPECGKLFS,1.92
2,LLRHQRIHTGERPYKCPECGKMFS,2.05
3,LLRHQRIHTGERPYKCPECGKDFS,1.63
4,LLRHQRIHTGERPYKCPECGKYFS,2.38
5,LLRHQRIHTGERPYKCPECGKVFS,2.98
6,LLRHQRIHTGERPYKCPECGKEFS,1.88
7,LLRHQRIHTGERPYKCPECGKIFS,2.88
8,LLRHQRIHTGERPYKCPECGKGFS,2.65
9,LLRHQRIHTGERPYKCPECGKNFS,1.4
10,LLRHQRIHTGERPYKCPECGKPFS,2.36
11,LLRHQRIHTGERPYKCPECGKRFS,2.4
12,LLRHQRIHTGERPYKCPECGKTFS,2.23
13,LLRHQRIHTGERPYKCPECGKHFS,2.29
14,LLRHQRIHTGERPYKCPECGKWFS,2.09
15,LLRHQRIHTGERPYKCPECGKFFS,2.2
16,LLRHQRIHTGERPYKCPECGKQFS,2.5
17,LLRHQRIHTGERPYKCPECKKSFS,2.27
18,LLRHQRIHTGERPYKCPECMKSFS,2.13
19,LLRHQRIHTGERPYKCPECSKSFS,1.95
20,LLRHQRIHTGERPYKCPECEKSFS,1.66
21,LLRHQRIHTGERPYKCPECHKSFS,2.21
22,LLRHQRIHTGERPYKCPECIKSFS,1.75
23,LLRHQRIHTGERPYKCPECAKSFS,2.05
24,LLRHQRIHTGERPYKCPECPKSFS,1.88

row,Variant,protein stability index
1,LLRHQRIHTGERPYKCPECRKSFS,1.79
2,LLRHQRIHTGERPYKCPECWKSFS,1.46
3,LLRHQRIHTGERPYKCPECDKSFS,2.52
4,LLRHQRIHTGERPYKCPECVKSFS,2.42
5,LLRHQRIHTGERPYKCPECFKSFS,2.99
6,LLRHQRIHTGERPYKCPECQKSFS,1.86
7,LLRHQRIHTGERPYKCPECNKSFS,2.35
8,LLRHQRIHTGERPYKCPECTKSFS,2.17
9,LLRHQRIHTGERPYKCPECLKSFS,1.66
10,LLRHQRIHTGERPYKCPECCKSFS,1.87
11,LLRHQRIHTGERPYKCPECYKSFS,1.76
12,LLRHQRIHTGERPYKCPECGKSFG,3.65
13,LLRHQRIHTGERPYKCPECGKSFQ,3.11
14,LLRHQRIHTGERPYKCPECGKSFY,2.25
15,LLRHQRIHTGERPYKCPECGKSFK,2.07
16,LLRHQRIHTGERPYKCPECGKSFE,1.88
17,LLRHQRIHTGERPYKCPECGKSFI,2.11
18,LLRHQRIHTGERPYKCPECGKSFV,2.62
19,LLRHQRIHTGERPYKCPECGKSFA,1.92
20,LLRHQRIHTGERPYKCPECGKSFD,2.36
21,LLRHQRIHTGERPYKCPECGKSFL,2.43
22,LLRHQRIHTGERPYKCPECGKSFF,2.01
23,LLRHQRIHTGERPYKCPECGKSFM,2.28
24,LLRHQRIHTGERPYKCPECGKSFN,2.34

row,Variant,protein stability index
1,LLRHQRIHTGERPYKCPECGKSFP,2.24
2,LLRHQRIHTGERPYKCPECGKSFR,1.94
3,LLRHQRIHTGERPYKCPECGKSFT,2.08
4,LLRHQRIHTGERPYKCPECGKSFW,2.59
5,LLRHQRIHTGERPYKCPECGKSFC,3.14
6,LLRHQRIHTGERPYKCPECGKSFH,2.12
7,LLRHQRIHTGERPYKCPECGQSFS,2.75
8,LLRHQRIHTGERPYKCPECGRSFS,2.01
9,LLRHQRIHTGERPYKCPECGPSFS,2.61
10,LLRHQRIHTGERPYKCPECGFSFS,1.82
11,LLRHQRIHTGERPYKCPECGNSFS,2.05
12,LLRHQRIHTGERPYKCPECGSSFS,1.84
13,LLRHQRIHTGERPYKCPECGMSFS,1.59
14,LLRHQRIHTGERPYKCPECGLSFS,2.77
15,LLRHQRIHTGERPYKCPECGESFS,2.53
16,LLRHQRIHTGERPYKCPECGISFS,1.68
17,LLRHQRIHTGERPYKCPECGVSFS,1.91
18,LLRHQRIHTGERPYKCPECGGSFS,1.83
19,LLRHQRIHTGERPYKCPECGDSFS,2.38
20,LLRHQRIHTGERPYKCPECGYSFS,2.19
21,LLRHQRIHTGERPYKCPECGHSFS,2.82
22,LLRHQRIHTGERPYKCPECGASFS,2.93
23,LLRHQRIHTGERPYKCPECGTSFS,2.16
24,LLRHQRIHTGERPYKCPECGCSFS,2.11
